# Experiment: soluble on expression in E. coli; label from the status in PepcDB or PDB records
row,Sequence,soluble on expression in E. coli
1,MPQNEHIELHRKRHGRRLDHEERQRKKLARAAHDRSQMAKTLRGHKAKLYHKKRYSEKVEMRKLLKQHEEKDQKNTVEQPDKGAVPAYLLDRQQQTSGTVLSNMIKQKRKQKAGKFNVPIPQVRAVSDAEAFKVVKTGKTNRKGWKRMVTKVTFVGESFTRKPAKFERFIRPMGLRFKKAHVTHPELQTTFHLPIVGVKKNPSSQMYTSLGVITKGTILEVNVSELGMVTQGGKVVWGKFAQVTNNPENDGCINAVLLI,not soluble
2,MPREYDNLICYKQLSIDDHGKLKFFLEKHSTKEGTWGKLSLSEGEIDFIFQNGLGQELSRIRLDKNNRQLSIPPASWHKIIPISASFNAQLGFYCKPHRYFNKKYGLTEVHRDLLYVYHTYLSHLGSLTTLDVGCGSGRNLLYLTQLGHIVTGIDINQTALENIQIIAQKENLSLLNILSQDLNQPQALAPDHYDFVCSTVTLQFLNASRIPSLLIELQEATKKNGYHFLVFPVQSELYSLPSSFTFLPKQEELYHFYQDSGWSILEYKESVGHLHKQDEMGRPVQGLFALLLAQKVLLEHHHHHH,not soluble
3,MPRIRCERCARPASHCLCALIPSLPSRTRVLVLQHPSEVGHALNTAGLAVLGLCNAELRVGERFAEETWRVPGYRACLLFPGEQARALAEMAAEAAGEPLLLVVPDGTWRKARKLLHLNPALAALPRVSLAEGMASRYRLRKAPGEGALSTIEAIAAALDELEAPRTHEALLKPFDALIEGQIAAMGEDTYRRNHLSQERRRRLEHHHHHH,soluble
4,MPRLTDDDKKLLLMLAREAIVTYVREGITPATELSVPSLCEHYGCFVCIKKGGELRGCIGNFTSSQPLYQLVREMAVSAATRDPRFYPMTSKDITDFSLEISVLSPLEKISSPEQITVGTHGIYIEKNFFRGVLLPQVATEYGWDRDTFLMQTCVKAGLKPDDWRDGADIYIFSAEVFSLEHHHHHH,not soluble
5,MPRSLANAPIMILNGPNLNLLGQRQPEIYGSDTLADVEALCVKAAAAHGGTVDFRQSNHEGELVDWIHEARLNHCGIVINPAAYSHTSVAILDALNTCDGLPVVEVHISNIHQREPFRHHSYVSQRADGVVAGCGVQGYVFGVERIAALAGAGSARA,soluble
6,MPSGGQRKHTISNKTRKRPGKDLDQIHEDLKPEKAAKLLQQEIDYDLPGNGQFYCIECERHFVDEKTRQLHRKTKLHKNRVKTLKEVPYTQAEANAAGGSGFFPAITLKTRVELPKQPEIPIPVVAET,soluble
7,MPSVKIGIIGAGSAVFSLRLVSDLCKTPGLSGSTVTLMDIDEERLDAILTIAKKYVEEVGADLKFEKTMNLDDVIIDADFVINTAMVGGHTYLEKVRQIGEKYGYYRGIDAQEFNMVSDYYTFSNYNQLKYFVDIARKIEKLSPKAWYLQAANPIFEGTTLVTRTVPIKAVGFCHGHYGVMEIVEKLGLEEEKVDWQVAGVNHGIWLNRFRYNGGNAYPLLDKWIEEKSKDWKPENPFNDQLSPAAIDMYRFYGVMPIGDTVRNSSWRYHRDLETKKKWYGEPWGGADSEIGWKWYQDTLGKVTEITKKVAKFIKENPSVRLSDLGSVLGKDLSEKQFVLEVEKILDPERKSGEQHIPFIDALLNDNKARFVVNIPNKGIIHGIDDDVVVEVPALVDKNGIHPEKIEPPLPDRVVKYYLRPRIMRMEMALEAFLTGDIRIIKELLYRDPRTKSDEQVEKVIEEILALPENEEMRKHYLKR,soluble
8,MPTLPRAANSRWRSLKIGLAPDLGLDDNGSLLLDFGPRQFTVSFDETLKPFVRDVSGSRLKDLPKPNKSDDETRANDAVNRYKLLKKDARTIAAQQVARLESAMCLRRRWSLENFQLFLVEHPLVRHLTRRLIWGVYSAENQLLACFRVAEDNSSSTADDDLFTLPEGDISIGTPHVLEISPTDAAAFGQLFADYELLPPFRQLDRNSYALTEAERNASELTRWAGRKCPSGRVMGLANKGWIKGEPQDGGWIGWMIKPLGRWSLIMEIDEGFAVGMSPAELSAEQLLSKLWLWEGKAERYGWGSNSTQEAQFSVIDAITASELINDIEALFE,not soluble
9,MPTNCAAAGCATTYNKHINISFHRFPLDPKRRKEWVRLVRRKNFVPGKHTFLCSKHFEASCFDLTGQTRRLKMDAVPTIFDFCTHI,soluble
10,MPTTPRSQPGTVGKDMAGALAGRHNDMPPISSNYQGRPGNANPNYRYQPSADNARNVADWTKSHMKTARENAAAKR,not soluble
11,MPVANDAPGVDIEGTDADAESGDLPINELFQSLQGEGRLAGVPSVFVRTSGCNLRCWFCDSYHTSWEPTHDWFTVDDVLAAIEEYDANHVVLTGGEPLIHDSSEDLLARLTDRGYHTTVETNGTVVPDAPIDLASVSPKLASSTPTADRDPDGNGEWADRHEERRLDVPTLAELVETYDTQLKFVVTGREDMAEIERLLKRLRDAASTCVRDDDVLLMPEGQTRDQLEATRETVADLALEHGYRYTPRLHVDLWNDAPGT,not soluble
12,MPVERVIDRPTPEEHLLERILATENMDLAWKRVRANKGAPGVDGVTIDAFPERFRPLWGDIRASLATGTYQPQPVLRVEIPKPTGGTRPLGIPTVLDRLIQQATAQVLTPIFDPEFSASSFGFRPGRSAHNAVRQLREYLRQGYRIAVDIDLAKFFDTVNHDLLMTMVGRRVRDKRVLTLIGRYLRAGVEVDGRLEKTRMGVPQGGPLSPLLANILLDHLDKELESRGHKFVRYADDFVILVKSERAGERVMGSVRKYLTNKLKLTVNEDKSKVARSGDLSFLGFVFKGTKILWSDQAYKEFRRRVRKYTGRSWFVSMEYRLNKLSTYLRGWMGYFGIAEAYRDIPEIDGWIRRRVRLCYWKQWRWCRTKIRNLLKLGVQLGTSIRAGLNRNGPWAMSRRLAAQHGMTNQWLKDQGLVSVKELWVKIHYPATARLEHHHHHH,not soluble
13,MPVFSINVNVKVPAEKQNEILKELSTVLGKLLNKPEQYMCIHFHEDQGILYAGTTEPAGFAVLKSIGGVGSAKQNNAISAVVFPIIEKHLGIPGNRLYIEFVNLGAADIAYNGQTFA,not soluble
14,MPYIILEDQTRLYYETHGSGTPILFIHGVLMSGQFFHKQFSVLSANYQCIRLDLRGHGESDKVLHGHTISQYARDIREFLNAMELDHVVLAGWSMGAFVVWDYLNQFGNDNIQAAVIIDQSASDYQWEGWEHGPFDFDGLKTAMHAIQTDPLPFYESFIQNMFAEPPAETETEWMLAEILKQPAAISSTILFNQTAADYRGTLQNINVPALLCFGEDKKFFSTAAGEHLRSNIPNATLVTFPKSSHCPFLEEPDAFNSTLLSFLDGVIGKS,not soluble
15,MPYKAKSDLPDNVRNVLPAHAQDIYKEAFNSAWEQYKDKADRRDDASREETAHKVAWAAVKNDYEKGEDDKWHKKK,not soluble
16,MQAKLFMIPWLIELVISQRAPSPPNPTPSAQVLTNDLLVDAHRRHFLDMLRRQQQINDALLLNNALLHPHPLPPLHIPANPAIQELNLPPAPPLFNPFIPAQVANQGPTSKLGTYGKDDEPEKKSEELKETPEEKEGTVGAPVRTDLVKKTLAGVKTVSIQKKGDVTGETLTTMEVVAPTTSTISPEDLEVVQLFKKLNLSKEETKSIVERVEQVVREKLMSKMDTSSTTTEVTTVVTTPSTTTTTTSTTQAPTTTTKEFIEEEIEEEDYSVATTAPPPQMHIRSEENLILQRNNLKHHPIKLQEKKLPESLESEEISQGSIKTSLTHLPIFVANEEEDVASLNPKSALHKRILIASQDREKESDRDLLVDFATGAPLDLSEPDVTKSKYEASPVATSPATLAPAQVTTRPVAPPRLNYHERTDFERLASDYRRRLENTGDINKILQKISENAYISLVERGGRRRLFGS,not soluble
17,MQARYRDWGIFKYWFRAVEKNAPWVHKIFIITDHQNPKFLNKHSSKIVFVNHEDFIPNEYLPTFNSDAIEIGIQNIPGLSEHFVFFNDDMFINKPVKPIDFFDGNIPKDSGVMGPQFPISNSITHITVNNMEIINKYFLKKKVLRKYFFKFFNWRYGKDNIRTATALPWQVFIGFYDMHIPISFLKSTFDNVWSEVGNLLSQNYQHRFRSQLDYSVWLMRYFQLASGNFFPRRTRFGKYYNLGEQTEEIINDIKTGKHALIVLNDQESINDYPYEKKLVNEVFERRYSRLEHHHHHH,soluble
18,MQASASNSSSYTVNASVLHVRAGSSTSHDIISRVYNGQSLNVIGEENGWYKININGKTGFVSGEFVSKNGTSNSNVSTTGGKNKVTADVLRVRTAPNTSSSVSGRVYEGQTLNVIGQENGWVKINHNGQVGYVSGEFVSGVSSNAGSSNSNTNNNNQESVKPASGNYTVNVSSLRVRTGPSTSHTTVGSVTKGQVVQVVGEVQDWFKINYAGQTAYVSKDYVTKGGSSDNVTQGNNQNNNQNNNVTVQTGGTYVVNATSLRVRTGPATYHSVIGGVLNGTTLNVIGSEGSWFKVNYQGKTGYVSSEFMKFVKGGTTTPEQPKQPEQPNQGAIGDYYINASALNVRSGEGTNYRIIGALPQGQKVQVISENSGWSKINYNGQTGYIGTRYLSKTPVGGAVDNNKPNNNQNNNQNNNNNTGNNSGNSSSILAYAKGMQGVPYVWGGTSANGVDCSGYIYHVFKKFGHNISRQSVAGYWGSLPQTSNPQPGDLIYFQNTYKSGPSHMGIYLGGGSFIQAGDKGVAIASLSNSYWKSHFLGYTKAPLEHHHHHH,soluble
19,MQAVNTTSGGAVGVERQQYMFSMLSTDEVNQMYAQSYQQTLGEASSKGVLDKSSADAKRVQAIANRLIAQAPKFRPDAAQWDWQVNVIKSDELNANCGPGGKIIVYTGLIDQLKLTDAEIAAVVGHEIAHALREHSREAMSKAYGVEMARQGAGAIFGLGQSSMAMADTVVNYAMTLPNSRANENEADLIGLELSARAGYDPNAAITLWNKMSKASEGAPPEFMSTHPASASRIASLQAAIPKVMPLYQAAAKPLEHHHHHH,soluble
20,MQAYTQTLIHRLDKLNRQRIERALALMDLQSQRVFHLIPALFQFNHPLIPGYFSADTPFGIHLFEANPIQQQFIDDAQLTLGEPLTPADNPAILGLYTMGSTSSIGQSTSSDLDIWVCVSAQMSCEARDNLSSKCLLITDWAKSQGVEANFFIMNEERFRHNHSEALSGENCGSSQHLLLLDEFYRSAVRLAGKRLLWQIVPPEMEECYDEYVHELCSNGYLNCNEWIDFGKLNRIPAEEYFGANLWQLYKSIDSPYKSVLKAILLEAYSWEYPHTQLLSIDSKRRFFADEPDLYGMDSYYQMLEKVTRYLVRIGDSTRLDLVRRCFYLKTHEKLSREPGVGSMPWRREALRELTSEWQWSADLIAELDNRRHWKVEQVKVVHHALLDALMLSYRNLIQFARRNDITSAISPQDISILARKLYAAFEVLPGKVTLLNPQISPDLHEPDLSFIEVCAGRTNKPGWYLYKQPLQAQRLIGQPYLEHNEYLSKLVAWAFFNGLITESTRLHAVVREAQLDIDKFYQMVSDLRNTFSLRKRRPTMQALANPCEISQLAMFINFEHDPTSELSGKALKVDLKNIDIFSFGAEQKCLVGSVDLVYRNSWQEVRTLHFEGQTAMLDALKTVLGKMHQDALPPESVDVFCYSKNLRGVMRNLVYQLLAECIDLRLKPMEQEKRRRFKALRMGDQMYGLFFERRGVSVQKLENSVDFYRSISTNKLKGSPLLMLDRDQDYPLPAVVDSFASEGLVQFFFEDTEKGFNIYVLDEANRVEVYHQFNGEKDEMIASVNSFYTSMLDDSNKLGAKSINFNLPQYYQIIHPEEGETYVVPYRNDSAVYSKPSQVVNA,not soluble
21,MQCNDVQATEPDIKVSLTRVGVTNLKKLVKLKRKNKRDIVLLPTFEVFVDLPSSQKGIHMSRSPEVIEEVVENILLEKEIYGVEDLSVEIVMKLFEKHEYATRAEVMLYSDYMMEEKSPVTKKDSQEIGKIIARAYGVKDSNGKIDVKKMVGAEVVGITACPCAQNMLKENAVVSLTEKGFSSEDIEKILDSVTIATHNQRGIGTVMIEVPNGYTVGISKIIKIIKDSMSGEVYELLKRSDEAFVVEAAHKNPKFVEDCAREMIKRVVDVFDYLPEDTQVLVRQVNKESIHRHDAFAERNSTIRELRDELKTLTN,not soluble

# — the DeepSol protein solubility set
